The target of this assay is B55α/δ regulatory subunit of PP2A (human (endogenous in HAP1)) (UniProt P63151). In words: co-IP; B56α (1D3-E12) or B55α/δ (2G9) antibody crosslinked to protein G-Sepharose, 1 h with lysates of HAP1 wild-type and lcmt1-/- cells; lysis buffer 10% glycerol, 135 mM NaCl, 20 mM Tris pH 8.0, 1% Nonidet P-40; immunoblot, co-precipitated A and C normalised to the B subunit.
Sequence of UniProt P63151 (P63151 whole entry, stated change not applied): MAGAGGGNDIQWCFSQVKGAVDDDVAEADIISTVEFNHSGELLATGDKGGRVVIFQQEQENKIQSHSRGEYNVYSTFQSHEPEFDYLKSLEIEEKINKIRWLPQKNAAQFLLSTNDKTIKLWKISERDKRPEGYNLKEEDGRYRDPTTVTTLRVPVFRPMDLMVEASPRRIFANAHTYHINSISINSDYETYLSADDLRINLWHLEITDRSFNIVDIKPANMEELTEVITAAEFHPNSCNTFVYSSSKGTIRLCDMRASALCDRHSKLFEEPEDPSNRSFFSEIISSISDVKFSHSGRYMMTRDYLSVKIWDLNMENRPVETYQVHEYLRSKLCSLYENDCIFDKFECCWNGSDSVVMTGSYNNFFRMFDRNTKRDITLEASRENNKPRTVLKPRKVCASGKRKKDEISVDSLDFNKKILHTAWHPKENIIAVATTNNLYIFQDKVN

As for “non-methylated PP2A-C (catalytic C subunit of PP2A) (from UniProt P67775 1-309) (natural protein)”, the trimeric holoenzyme level relative to wild-type cells (of the levels in wild-type cells) amounted to 0.33.

Values taken from publication PMC10465527.
